Common to all, as to experiment: fluorescence anisotropy; FA: 50 mM Tris pH 7.0 (also given as pH 8), 200 mM NaCl, 10 mM 2-mercaptoethanol, 20 C; NMR: 20 mM Bis-Tris pH 7.0, 200 mM NaCl, 4 mM 2-mercaptoethanol; pull-down: HSB, 1 h at 30 C
Conditions in all cases: protein: recombinant; tags: 6xHis-Smt3 removed with Ulp1; label: 5' fluorescein

The target in one series is T1, RBM7 RRM (Homo sapiens (cDNA from HEK293T-Rex), UniProt Q9Y580 6-94).
T1 sequence: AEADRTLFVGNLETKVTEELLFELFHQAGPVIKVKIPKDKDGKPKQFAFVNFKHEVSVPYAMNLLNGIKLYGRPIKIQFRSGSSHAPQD

The target in the next series is T2, RBM7 RRM K40A (Homo sapiens, UniProt Q9Y580 6-94, K40A).
T2 sequence: T1 sequence with K35A

The target of the next series is T3, RBM7 RRM K81A (Homo sapiens, UniProt Q9Y580 6-94, K81A).
T3 sequence: T1 sequence with K76A

A further series addresses T4, RBM7 RRM K38A (Homo sapiens, UniProt Q9Y580 6-94, K38A).
T4 sequence: T1 sequence with K33A

The record followed here is article PMC4417160, “RBM7 subunit of the NEXT complex binds U-rich sequences and targets 3′-end extended forms of snRNAs”.

Numbering of substitutions follows the chain as printed.

With UUUUUUU (ssRNA) [U7], the Kd with RBM7 RRM amounted to 60 ± 10 µM. In the case of CUCUCUC (ssRNA) [Y7], the Kd with RBM7 RRM is 70 ± 10 µM; in the series with RBM7 RRM K40A, 200 ± 20 µM; in the series with RBM7 RRM K81A, 100 ± 10 µM; in the series with RBM7 RRM K38A it was 90 ± 10 µM. Consider AAAAAAA (ssRNA) [A7], for which the binding result with RBM7 RRM is on record as “no binding”. In the case of AUUAUUA (ssRNA) [AU7], the Kd with RBM7 RRM turned out to be 130 ± 10 µM. Same read-out and setting: as for CUUCU (ssRNA) [Y5], the figure is 90 ± 10 µM; as for CUCU (ssRNA) [Y4], 160 ± 10 µM.
